{"source": "paper PMC12175901", "key": {"[1]": {"molecular_target": "HIV-1 capsid capsid (Human immunodeficiency virus 1) (UniProt O93182)", "sequence (O93182 133-363)": "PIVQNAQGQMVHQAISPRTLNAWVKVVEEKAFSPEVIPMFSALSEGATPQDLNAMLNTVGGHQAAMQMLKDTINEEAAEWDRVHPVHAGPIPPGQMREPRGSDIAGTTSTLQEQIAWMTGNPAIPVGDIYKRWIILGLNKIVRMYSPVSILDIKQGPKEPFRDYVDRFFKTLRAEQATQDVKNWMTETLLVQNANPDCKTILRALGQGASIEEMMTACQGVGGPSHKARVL", "conditions": "cited from earlier work"}, "[2]": {"molecular_target": "full-length BicD2 (zz-TEV-Halo-hBicD2^FL-6×His) (human) (UniProt Q8TD16)", "sequence (Q8TD16 whole entry)": "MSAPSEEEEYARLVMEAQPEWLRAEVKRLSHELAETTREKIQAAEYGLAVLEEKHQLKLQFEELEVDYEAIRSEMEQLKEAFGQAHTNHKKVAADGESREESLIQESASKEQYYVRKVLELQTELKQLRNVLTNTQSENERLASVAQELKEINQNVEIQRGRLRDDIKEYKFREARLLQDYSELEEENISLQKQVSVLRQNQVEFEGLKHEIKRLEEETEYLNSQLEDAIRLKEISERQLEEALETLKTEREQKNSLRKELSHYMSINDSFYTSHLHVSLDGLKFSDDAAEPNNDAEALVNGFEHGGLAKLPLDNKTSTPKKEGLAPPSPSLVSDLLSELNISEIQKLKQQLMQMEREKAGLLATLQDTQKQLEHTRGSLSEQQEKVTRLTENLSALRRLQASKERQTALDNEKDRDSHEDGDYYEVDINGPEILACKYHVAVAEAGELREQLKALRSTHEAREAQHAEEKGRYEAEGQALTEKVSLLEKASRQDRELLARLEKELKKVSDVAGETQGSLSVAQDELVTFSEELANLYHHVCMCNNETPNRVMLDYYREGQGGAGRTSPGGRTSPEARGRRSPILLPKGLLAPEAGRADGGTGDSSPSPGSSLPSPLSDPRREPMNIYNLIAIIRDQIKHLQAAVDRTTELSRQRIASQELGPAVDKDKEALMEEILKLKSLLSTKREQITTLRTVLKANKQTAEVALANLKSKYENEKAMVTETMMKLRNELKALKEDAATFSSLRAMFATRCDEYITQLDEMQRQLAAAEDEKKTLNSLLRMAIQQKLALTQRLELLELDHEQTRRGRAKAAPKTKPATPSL", "assay": "TIRF microtubule recruitment assay; Nup358^min-zip labeled at 488 nm, full-length hBicD2, dynein and dynactin (1:1:2:2), 10 nM dynein; with all, or without dynein or BicD2; microtubules labeled with Alexa Fluor 647"}, "[3]": {"molecular_target": "recombinant human cytoplasmic dynein (full-length dynein complex) (human) (UniProt Q14204)", "assay": "TIRF microtubule recruitment assay"}, "[4]": {"molecular_target": "recombinant human cytoplasmic dynein (full-length dynein complex) (human) (UniProt Q14204)", "assay": "single-molecule TIRF colocalization"}, "[5]": {"molecular_target": "purified HIV-1 cores labelled with GFP-Vpr (HIV-1) (UniProt P12520)", "sequence (P12520 whole entry, looked up)": "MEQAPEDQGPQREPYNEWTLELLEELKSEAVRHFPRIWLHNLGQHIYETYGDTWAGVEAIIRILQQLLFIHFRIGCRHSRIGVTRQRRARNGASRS", "assay": "TIRF fluorescence intensity against a standard curve"}}, "data": [{"substance": "CypA (from UniProt P62937)", "values": [{"measurement": "Kd", "setting": "[1]", "value": "> 13", "unit": "µM"}]}, {"substance": "Nup358^min-zip [hNup358(2148 to 2240)-GCN4-SnapTag] (from UniProt P49792 2148-2240)", "values": [{"measurement": "fold loss of microtubule recruitment when BicD2 is left out", "setting": "[2]", "value": 15, "unit": "fold"}]}, {"substance": "purified HIV-1 cores labelled with GFP-Vpr (from UniProt P12520 1-96) (complex)", "values": [{"measurement": "fold increase of cores on microtubules (with dynein, dynactin and BicD2^FL)", "setting": "[3]", "value": 3.4, "unit": "fold"}, {"measurement": "percent of microtubule-bound cores colocalized with dynein", "setting": "[4]", "value": 75.6, "unit": "%"}]}, {"substance": "recombinant human cytoplasmic dynein (full-length dynein complex) (from UniProt Q14204 1-4646; Q13409 1-638; O43237 1-492; P63172 1-113; P63167 1-89; Q9NP97 1-96)", "values": [{"measurement": "stoichiometry N (dynein dimers per HIV-1 core)", "setting": "[5]", "value": 11.6}]}]}
